Assay results from US9163330B2, “Bifunctional stapled polypeptides and uses thereof” (President and Fellows of Harvard College, priority 2009, dated 2015).
Positions of bridges follow the written chain, without caps; N, C: chain ends. Non-standard residues stand in square brackets, D forms with d. No end group written: not given here. S5 = C=CCCC[C@](C)(N)C(=O)O; βAla = NCCC(=O)O

System: Hela cells
Experiment: Confocal microscopy of Hela cells treated with FITC-conjugated SID-series peptides
Assay type: cell-based
Conditions: FITC-conjugated peptide, 10 μM, 6 hours, 37° C.
Description: HeLa cells were grown on chamber slides overnight. 10 mM FITC-SID peptides in DMSO stock solutions were diluted in cell media to a final concentration of 10 μM, along with a 10 μM DMSO control. Cells were incubated in peptide/vehicle solutions at 37° C. for 6 hours, then washed thoroughly with media and PBS, and fixed with 4% paraformaldehyde. Slides were stained with Vectashield™ Hardset with DAPI. Images were taken with a Zeiss 710 confocal microscope.

Row | Substance | cellular penetration
1 | βAla-VRRRI*MLL*AANYLER ([βAla]VRRRI[S5]MLL[S5]AANYLER; staple 7-11) [SID2] | robust cellular penetration
2 | βAla-VRRRIQMLLEAANK*ERR*R ([βAla]VRRRIQMLLEAANK[S5]ERR[S5]R; staple 16-20) [SID5] | robust cellular penetration
